Data on 31 sequences can be found in the supplement of paper PMC9170038.

The data set has as its system MS2 coat protein. The data set can be described thus: apparent KD of MS2 coat protein; designed switch direction (-1 OFF switch, 1 ON switch): -1; higher = weaker reporter binding. In short, it runs like this:
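The buffer was Tris-HCl pH 7.5 with KCl, MgCl2, BSA, DTT, tRNA and Tween-20. In it, SNAP-549-labelled MS2 coat protein was titrated in doubling steps from 0.7 or 1.5 nM to 3 µM over chip-bound RNA switches transcribed by stalled E. coli RNA polymerase on Illumina chips. Apparent KD is the per-design median over clusters of curve fits to normalised fluorescence.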

Where [1] appears, read: Eterna round: R95, input ligand: microRNA oligo, concentration not stated.
Where [2] appears, read: Eterna round: R95, input ligand: FMN 200 uM.
Setting [3] is: Eterna round: R95, input ligand: none.
Where [4] appears, read: input ligand: microRNA oligo, concentration not stated.

As for “GAAUAGGGAGGAUAUCCAAUAUAUGACAUGAGGAUCACCCAUGUUUCCACUCGUACCUCCGGAGAAGGCCCAUAAG [Ex5 #5] (Eterna round: R97, puzzle: Exclusion 5)”, the “apparent KD of MS2 coat protein” value by setting is: (input ligand: FMN 200 uM) 22.4 nM; (input ligand: none) 30.6 nM.

As to “UACGAGUUAGGAUAUGCAAUGGGCUCGCUUUCCUUCGAUAAACUUGAGGAUCACCCAAGUAGAAGGAACUUGUA [Mod 36 - Jieux - Exclusion 2] (Eterna round: R97, puzzle: Exclusion 2)”, the “apparent KD of MS2 coat protein” value turned out to be 19.9 nM (input ligand: FMN 200 uM) and 16.2 nM (input ligand: none).

Turning to “CCUUUGUCAGGAUAUCAGAACACGCCCGUAGGGAGUGCAAAUGAGAAGGGACAUGAGGAUCACCCAUGUACAGA [Leonveti] (puzzle: Exclusion 4)”, the “apparent KD of MS2 coat protein” value under setting [1] is 29.4 nM.

“CUCCUCGCUUAGGAUAUGUACACUUGCACCGUGACAGAAGGAAGCACUUGAGGAUCACCCAAGUGCCAGGGUGC [Geena] (Eterna round: R97, puzzle: Exclusion 6)”: the “apparent KD of MS2 coat protein” value runs as follows: (input ligand: FMN 200 uM) 14.4 nM; (input ligand: none) 16.7 nM.

Take “GAUUAUGCGAGCUUUAGGGACAUGAGGAUCACCCAUGUUCGUCUUAUUGGUCUGAAUACACUGACAUACCUAAAUCU [JMF 56] (puzzle: Sensor v3, turn-off variant 1)”: the “apparent KD of MS2 coat protein” value was 16.6 nM under setting [2], 21.8 nM under setting [1] and 15.9 nM under setting [3].

Turning to “GGAAAACAUGAGGAUCACCCAUGUAAGGAUAUGCAAAAGGAUAUAGAAGGAAAAAAAAGCAGAAGGUACAAAGG [salish99-ex1_r3_094] (puzzle: Exclusion 1)”, the “apparent KD of MS2 coat protein” value stood at 132 nM under setting [2], 36.3 nM under setting [1] and 32.8 nM under setting [3].

Consider “ACAUGAGGAUCACCCAUGUGGACGAAAAGGCUCAUGUAGAGUGAGGAUAUGUGAGACGAACGAGAACAGAAGGCACAAGACAGG [Deportation 5 - Jieux - Exclusion NG 3] (Eterna round: R96, puzzle: Exclusion NG 3)”, for which the “apparent KD of MS2 coat protein” value is, setting by setting: (input ligand: FMN 200 uM) 17.4 nM; under setting [4], 22.3 nM; (input ligand: none) 20 nM.

With “GAACUGAAGCUUUGCUUUAGUCGUACAUGAGGAUCACCCAUGUAGGAUAUGGUAGGCUUUGCUUACUAGAAGGACAGAGUGAUC [Mat - Exclusion NG 3 - Mod of JL - D68] (Eterna round: R96, puzzle: Exclusion NG 3)”, the “apparent KD of MS2 coat protein” value by setting is: (input ligand: FMN 200 uM) 61.8 nM; under setting [4], 73.8 nM; (input ligand: none) 113 nM.

With “GAUUAUGCGAGCUUUAGGGACAUGAGGAUCACCCAUGUUCGUCUUAUUGGUCUGAGUACACUGACAUACCUAAAUCU [JMF 63] (puzzle: Sensor v3, turn-off variant 1)”, the “apparent KD of MS2 coat protein” value reads like this: under setting [2], 13.3 nM; under setting [1], 15.9 nM; under setting [3], 12.8 nM.

Take “AGUAACCGUCACGAAAGUGAUGGUUACGCAAGCAAAUGUACAUGAGGAUCACCCAUGUCCUCAAUUGCUCGUCUUAU [Sensor 3 - 51] (puzzle: Sensor v3, turn-off variant 2)”: the “apparent KD of MS2 coat protein” value reads like this: under setting [2], 102 nM; under setting [1], 175 nM; under setting [3], 114 nM.

Regarding “AAAGCGUCAGGAUAUCCAAUAUAUGACAUGAGGAUCACCCAUGUUUCCACUCGUACCUCCGGAGAAGGGACAAAUA [Ex5 #86] (Eterna round: R97, puzzle: Exclusion 5)”, the “apparent KD of MS2 coat protein” value is 32.5 nM (input ligand: FMN 200 uM) and 38.1 nM (input ligand: none).

As to “UUAUUAAAUGUAGGAUAUGCAUAUUAUUAUUAUGCAGAAGGACAUGAGGAUCACCCAUGUAUAUUAUUAUUAUAUAUUAUAUAU [Title] (Eterna round: R96, puzzle: Exclusion NG 1)”, under setting [4], the “apparent KD of MS2 coat protein” value came to 26.5 nM.

For “AGUUGGCGAGGAUAUACAUGAGGAUCACCCAUGUGAGAGAAAAAAGUGAGGAAGAAAAGUAGAAGGCGCUGACA [salish99_ex3_r3_038] (puzzle: Exclusion 3)”, the “apparent KD of MS2 coat protein” value by setting is: under setting [2], 318 nM; under setting [1], 48.3 nM; under setting [3], 77.3 nM.

“AAGGGACAUGAGGAUCACCCAUGUGAGGAUAUGCUAUGGAAAAUAAAAAAUAAACAUAGCAGAAGGCAUAAAAA [Mat - Exclusion 1 - Eli mod - D37] (Eterna round: R96, puzzle: Exclusion 1)”: the “apparent KD of MS2 coat protein” value (input ligand: FMN 200 uM) is 89.2 nM, the “apparent KD of MS2 coat protein” value under setting [4] is 65.3 nM and the “apparent KD of MS2 coat protein” value (input ligand: none) came out at 99.2 nM.

With “GGGCUGUCAGGAUAUCCCGGGCCCGGGUAAACCCGGGUUUGGGAGAAGGGACAUGAGGAUCACCCAUGUGGCCC [-39.8, -38.8 kcal, A 20%, 5cbis-0] (Eterna round: R97, puzzle: Exclusion 4)”, the “apparent KD of MS2 coat protein” value runs as follows: (input ligand: FMN 200 uM) 34.8 nM; (input ligand: none) 34.1 nM.

Take “UAAUUAGACUCAGGAUAUUCGAAGAGAAGAGAGGAAGAAGGGAGGUGACAUGAGGAUCACCCAUGUAUGUGUUGUGUCCAUGUG [Exclusion NG 1 S1] (Eterna round: R96, puzzle: Exclusion NG 1)”: the “apparent KD of MS2 coat protein” value was 326 nM (input ligand: FMN 200 uM), 553 nM under setting [4] and 617 nM (input ligand: none).

In the case of “AGAGAAUAGGUAGGAUAUCUUAAUAGAAAGAAUAGAGAAGGACCACAUGAGGAUCACCCAUGUGAAGUCUUGAGACUACAUGGU [Prohibition 31 - Jieux - Exclusion NG 1] (Eterna round: R96, puzzle: Exclusion NG 1)”, the “apparent KD of MS2 coat protein” value under setting [4] is 15 nM.

Take “CAGUACUGAGGAUAUACAUGAGGAUCACCCAUGUGUUCCAGCUAGGAAACUAGCAAGAGUAGAAGGCAGUACUG [salish99_ex3_r3_066] (Eterna round: R96, puzzle: Exclusion 3)”: the “apparent KD of MS2 coat protein” value runs as follows: (input ligand: FMN 200 uM) 543 nM; under setting [4], 18.5 nM; (input ligand: none) 22.9 nM.

Regarding “CAGUACUGAGGAUAUACAUGAGGAUCACCCAUGUGUUCCAGCUAGGAAACUAGCAAAAGUAGAAGGCAGUACUG [salish99_ex3_r3_064] (puzzle: Exclusion 3)”, the “apparent KD of MS2 coat protein” value by setting is: under setting [2], 285 nM; under setting [1], 19.6 nM; under setting [3], 22.4 nM.

For the sequence “UGUAACCUGGUAAGGAUAUAGUUGCAAGGAGUCAACUAGAAGGUACAUGAGGAUCACCCAUGUCUACGGAUAUC [Eternabot (L2) Solution 91] (Eterna round: R97, puzzle: Brourd's mod of Exclusion 4)”, the “apparent KD of MS2 coat protein” value runs as follows: (input ligand: FMN 200 uM) 20.6 nM; (input ligand: none) 17.3 nM.

On to “GAAGUUAGAGGAUAUACAUGAGGAUCACCCAUGUGUGAAGUAAACUUUGUAUGUUUAUGUAGAAGGCUAACUUC [-21.7, -19.9 kcal, 32% A] (Eterna round: R97, puzzle: Exclusion 3)”, for which the “apparent KD of MS2 coat protein” value is, setting by setting: (input ligand: FMN 200 uM) 94 nM; (input ligand: none) 19.1 nM.

On to “AGAAAUGCCCAUGGCCACAAGCUUUUUGCCUGUCUUACCACAUGAGGAUCACCCAUGUGACAUGGGCUCCUGAUAAU [Didilaeren] (puzzle: Sensor v3, turn-off variant 2)”, for which the “apparent KD of MS2 coat protein” value is, setting by setting: under setting [2], 15.8 nM; under setting [1], 305 nM; under setting [3], 14.3 nM.

As for “GCUGGUCGAGGAUAUACAUUCGUGCUUCGGCACGUAAGGUCACAUGAGGAUCACCCAUGUAGAAGGCGACCAGC [E2/7-A1] (Eterna round: R97, puzzle: Exclusion 2)”, the “apparent KD of MS2 coat protein” value (input ligand: FMN 200 uM) stood at 258 nM and the “apparent KD of MS2 coat protein” value (input ligand: none) is 42.2 nM.

Turning to “CGAUGAGGAGUGAGGAUAUCGUGUUCGAAAGAACGUGAGAAGGCACAUGAGGAUCACCCAUGUGAUCCUUGUCG [Omei Ex4B A9] (Eterna round: R97, puzzle: Brourd's mod of Exclusion 4)”, the “apparent KD of MS2 coat protein” value by setting is: (input ligand: FMN 200 uM) 57.2 nM; (input ligand: none) 30.4 nM.

As to “AUAUUGUGAGGAUAUGAACUUAGUAUCGAAAGAUACAAAGUUCAGAAGGCACAUGAGGAUCACCCAUGUUUCUC [Long static hairpin v7] (Eterna round: R97, puzzle: Exclusion 4)”, the “apparent KD of MS2 coat protein” value by setting is: (input ligand: FMN 200 uM) 703 nM; (input ligand: none) 76.1 nM.

For the sequence “CAGAACUGAGGAUAUACAUGAGGAUCACCCAUGUGUUCCAGCUAGGAGACUAGCAUAUGUAGAAGGCAGUUCUG [Mat - Exclusion 3 - JL Mod - D11] (Eterna round: R97, puzzle: Exclusion 3)”, the “apparent KD of MS2 coat protein” value is, setting by setting: (input ligand: FMN 200 uM) 587 nM; (input ligand: none) 359 nM.

In the case of “CUCAUGUGUGAGGAUAUUAGAGCGAGCGUGUGAUAAGAAGGCACAACAUGAGGAUCACCCAUGUAGAGAGAGUG [Alacar 1st] (Eterna round: R97, puzzle: Exclusion 6)”, the “apparent KD of MS2 coat protein” value by setting is: (input ligand: FMN 200 uM) 28.9 nM; (input ligand: none) 69.6 nM.

As to “CAAAAGAGAGGAUAUACAUGAGGAUCACCCAUGUAAAGUCCGCUGGUUGUUCAGAUAUGUAGAAGGCUCGUGUC [EX3 C.5] (Eterna round: R97, puzzle: Exclusion 3)”, the “apparent KD of MS2 coat protein” value was found to be 16.9 nM (input ligand: FMN 200 uM) and 14.4 nM (input ligand: none).

In the case of “UUAUACGUUGAGGAUAUGCGAAUAAGUAUAGUUGCAGAAGGCGAUACAUGAGGAUCACCCAUGUUCAUGGACAU [LRO-Ex6-04] (puzzle: Exclusion 6)”, the “apparent KD of MS2 coat protein” value under setting [1] came out at 106 nM.

Take “UUUAAUUUUUUUUUUUUACAAGCUUUUUGCUCGUCUUAUACAUGAGGAUCACCCAUGUGGAUGGGAGAUAAAUUAUC [JMF 19] (puzzle: Sensor v3, turn-off variant 2)”: the “apparent KD of MS2 coat protein” value is 30.9 nM under setting [2], 164 nM under setting [1] and 36.4 nM under setting [3].

Take “AGCAGACGAGGAUAUAAAUGAUAUAACAUGAGGAUCACCCAUGUACGAUCGAAUGAUCGUUUAGAAGGCGUCUGCU [E5/11-A1] (Eterna round: R97, puzzle: Exclusion 5)”: the “apparent KD of MS2 coat protein” value was determined as 16.5 nM (input ligand: FMN 200 uM) and 16.3 nM (input ligand: none).
